Results published in the nanobody polyreactivity screen of Harvey et al. (2022).

Assay: yeast display, Sf9 membrane polyspecificity reagent, FACS + sequencing; frameworks hold sequencing errors
Method in brief: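 Galactose-induced (36–48 hours) yeast carrying a synthetic nanobody display library were exposed to 10% biotinylated, detergent-solubilized Sf9 membrane reagent at 4 °C for 1 hour. FACS followed streptavidin microbead enrichment, using low and high (top ~1%) gates for expression (anti-HA) and reagent binding (streptavidin). Colony PCR, MiSeq 2 × 250 sequencing and CDR-length filtering followed. Labels for polyreactivity reflect the gate of origin.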

| Sequence | polyreactivity (PSR sort gate) |
| --- | --- |
| QVQLVESGGRLVQAGGSLRLSCAASGFILLAYAMGWYRQAHGKERELVAAITSGGSTHYADSVKGRFTISRDNAKNTVYLQMNSLKPEDTAVYYCAKDTVFRYSGNTYGYWGQGTQVTVSS | low polyreactivity |
| QVQLVESGGRLVQAGGSLRLSCAASGFILTSYAMGWYRQAPGKERELVAAISSRGGRTYYADSVKGRFTISRDNAKNTVYLQMNSLKPEDTAVYYCNAVVYVVGDFDYWGQGTQVTGSS | high polyreactivity |
| QVQLVESGGRLVQAGGSLRLSCAASGGTFGQYAMGWYRQAPGKERELVAAISRGGDSTYSADSVKGRFTISRDNAKNTVYLQMNSLKPADTAVYYCAAPGISYYSRYYYRTYDYWGQGTQVTVSS | high polyreactivity |
| QVQLVESGGRLVQAGGSLRLSCAASGIIFPYYAMGWYRPAPGTVRELVAGISSSGGITYADSVKGRYTISRDNAKNTVYLPMNSLKPEDTAVYYCNAEYQWLEYDYWGQGTQVTVSS | low polyreactivity |
| QVQLVESGGRLVQAGGSLRLSCAASGITLNRNAMGWYRQEPGKESELVARISRRGGTTYYADSVKGRFTISRYYAKNTVYLQMNSLKPEDTAVYYCAASYSDRKLTDYWGQRTQVTVSS | high polyreactivity |
| QVQLVESGGRLVQAGGSLRLSCAASGLIFADYTMGWYRQAPGKERELVAVITDGDSTYYADSVKGRFTISRDNAKNTVYLQMNSLKPEDTAVYYCAARSAILKSGYLMDYWGQGTQVTVSS | low polyreactivity |
| QVQLVESGGRLVQAGGSLRLSCAASGPIFAPYDMGWYRQAPGKERELVAAISRSGGSTYYADSVKGRFTISRDNAKNTVYLQMNSLKPEETPVYSCAAGLFVGFDYWGQGTQVTVTS | high polyreactivity |
| QVQLVESGGRLVQAGGSLRLSCAASGRIFAAYAMGWYRQAPGKEREFVAGITRTGGSTYYADSVKGRFTISRDHAKNTVYFQMNSLKPEDTAVYYCAASLVYYGHAYNYWGQGTQVTVSS | high polyreactivity |
| QVQLVESGGRLVQAGGSLRLSCAASGRIFVRYAMGWYRQAPGKERELVAAISTRGGSTYYADSVKGRFTISRDNAKNTVYLQMNSLNPEDTAVYYCAAGPRPRPTDYWGQGTQVTVSS | high polyreactivity |
| QVQLVESGGRLVQAGGSLRLSCAASGRIFWGYALGRYRQAHGKVSELVAAITRSGGRTYYADSVKGRFTISRDNAKNTVYLQMTSLKREDTAVYYCNAVNSLQPYKFDYWVQGTQVTVSS | high polyreactivity |
| QVQLVESGGRLVQAGGSLRLSCAASGRIILRNAMGWYRQAPGKERELVAAISSSGGRKYYADSVKGRFTISRDNAKNTVYLQMNSLKPEDTAVYYCNARWHGSFDYWGQGTQVTVSS | low polyreactivity |
| QVQLVESGGRLVQAGGSLRLSCAASGRTFYHNAMGWYRQAPGKERELVAVITWSGGSTYYADSVKGRFTISRDNAKNTVYLQMNSLKPEDTAVYYCATRRYGYERILYNYWGQGTQVTVSS | high polyreactivity |
| QVQLVESGGRLVQAGGSLRLSCAASGRTIYGNVMGWYRQAPGKERELVAVISWSSGSTSYADSVKGRFTISRDNAKNTVYLQMKSLKPEDTAVFYCAADSVTRPAGDYWGHGTQVTVSS | low polyreactivity |
| QVQLVESGGRLVQAGGSLRLSCAASGSIFALYAMGWYRQQPGKVRELVAAIRRGTSTKYADSVKGRFTISRDNAKNTVNLHMKSLKPEDTAVYYCNARYYYCSSISRWSDYWVQGTQVTVSS | high polyreactivity |
| QVQLVESGGRLVQAGGSLRLSCAASGSIFFSNAMGWYRQAPGKERELVAAITSTGGSTYYADSVKGRFTISRDNAKNTVYLQMNSLKPEDTAVYYCAAASRRGYYYWGQGTQVTVSS | high polyreactivity |
| QVQLVESGGRLVQAGGSLRLSCAASGSIFLKYAMRWYRQAPGKERELVAAISSAGRTYYADSVKGRFTISRDNAKKTVYLQMNSLKPEETAVSYCAARYPYDWRHDYWGQGTQVTVSS | low polyreactivity |

| Sequence | polyreactivity (PSR sort gate) |
| --- | --- |
| QVQLVESGGRLVQAGGSLRLSCAASGSIFTPYAMGCYIQAPGKERELVAAIRSVVRTNYADSVKGRFTISRDNAKNTVYLQLNSLNPEDTAVYYCATAVYPDFEYDSWGQGTQVTVSS | low polyreactivity |
| QVQLVESGGRLVQAGGSLRLSCAASGSIFVKYAMGWYRPAPGKERELVAAISGSGGSTYYADSVKGRFTISRDNAKTTVYLEMNSLKPEDTAVYYCAADDYFYSGRYGFEFWGHGTQVTVSS | low polyreactivity |
| QVQLVESGGRLVQAGGSLRLSCAASGSIFYFNAMGWYRQAPGKERELVATISRRGGSTYYADSVKGRFTISRDNAKKTVYLQMNSLKPEDTAVYYCAADYYTLYPVYIKRYGYWGQGTQVTVSS | high polyreactivity |
| QVQLVESGGRLVQAGGSLRLSCAASGSIISWYAMGWYRQAPGKERELVAAISNSGGSTYYADSVKGRFTISRDNAKNTVYLQMNSLKPEDTAVYYCAAYDGDTYDWGQGTQVTVSS | high polyreactivity |
| QVQLVESGGRLVQAGGSLRLSCAASGSILYIYAMGWYRQAPGKERELVAAISKNSADTYYADSVKGRFTISRDNAKNTVYLQMNSLKPEDTAVYYCAADVVKVAAYNYWGQGTQVTVSS | low polyreactivity |
| QVQLVESGGRLVQAGGSLRLSCAASGSTFDNNAMGWYRQAPGKEREFVAAITYSGGGSTSYADSVKGRFTISRDNAKNTVYLQMNSLKAEDTAVYFCAARDFETDGYTLVAYIYWGQGSQVTVSS | low polyreactivity |
| QVQLVESGGRLVQAGGSLRLSCAASGSTFGVNTKGWYRQAPGKEREFVAAITYGGGGTYYADSVKGRFTISRDNAKNTVYLQMNSLKPEDTAVYYCAARRAPKYYWGQGTQVTVSS | high polyreactivity |
| QVQLVESGGRLVQAGGSLRLSCAASGSTFHDYAMGWYTPAPGKERELVAAIYNSGGSTYYADSVKGRFSISLDNAQNTVYLQMNRLKPEDSAVYYWAADVSWYWYYEYWGQGTQVTLSS | low polyreactivity |
| QVQLVESGGRLVQAGGSLRLSCAASGSTFWYYAMGWYRQAPGKERELVASITYSGGSTYYADSVKGRFTISRDTAKNTVYLQMNSLKPEDTAVYYCAAEGYYSNYHYWGQGTQVTVSS | low polyreactivity |
| QVQLVESGGRLVQAGGSLRLSCAASGSTFYFYAMGWYRQEPGKERELVAAISFTDTSTYYADSVKARFTISRDNAKNNVYLQMNSLKPEDTAVYYCAADSDYWGQGTQVTVSS | high polyreactivity |
| QVQLVESGGRLVQAGGSLRLSCAASGYIFYPNVMGWYRQAPGKERELVAAISSSGGSTYYADSVKGRFTISRDNAKNTVYLQMNSLKPEDTAVYYCAARSLRYADYRSSYQKDMYYWGQGTQVTVSS | low polyreactivity |
| QVQLVESGGRLVQAGGSLRLSCAASGYIVTIYAMGWYRQAPGKEREFVAAITWSGGRTYYADSVKGRFTISRDNPKNTVYIQRNSLTPEDTAVYYCDARVANYLSQMYYWGQGTQVTVSS | high polyreactivity |
| QVQLVESGGRLVQAGGSLRLSCAPSGRTFGVYAMGWYRQAPGKERELVAVISSSSGSTYYADSVKGRFTISRDNAKNTVYLQMNSLKPEDTAVYYCAADFFYESFRDDYWGQGTQVTVSS | low polyreactivity |
| QVQLVESGGRLVQAGGSLRLSCASSGSTFVPNDMGLYRQAPGKERELVAAISRSGDDTYYADSVKGRFTISRDNAKNNVYLQMNSLKPVYTAVYYCAASAGYAYNYWGQGTQVTVSS | low polyreactivity |
| QVQLVESGGRLVQAGGSLRLSCDASGRTFYTNAMGWYRQEPGKEMELVAAISGRGSTYYADSVTGRFTISRDNAKNTVYLQMNSLKPEDTAVYYCAALLPGRSSSDYWGQGTQVTVSS | high polyreactivity |
| QVQLVESGGRLVQAGGSLRLSCSASGRICAYYAKGWYRQAPGKDRELVADSTYADSVKGRFTISRDNAKNTVYLQMKSLKPEYTAVYYCAVDYHFFLSRTYLPGSKYDFWGLGTQVTVSS | low polyreactivity |
